# B1: Serine/arginine-rich splicing factor 2 (Homo sapiens), Q01130 (parent)
# chain: MSYGRPPPDVEGMTSLKVDNLTYRTSPDTLRRVFEKYGRVGDVYIPRDRYTKESRGFAFVRFHDKRDAEDAMDAMDGAVLDGRELRVQMARYGRPPDSHHSRRGPPPRRYGGGGYGRRSRSPRRRRRSRSRSRSRSRSRSRSRYSRSKSRSRTRSRSRSTSKSRSARRSKSKSSSVSRSRSRSRSRSRSRSPPPVSKRESKSRSRSKSPPKSPEEEGAVSS
# Variants of: B1
# Settings: with kat5_human KAT5, Q92993
# kat5_human KAT5, Q92993, sequence (Q92993 whole entry, looked up): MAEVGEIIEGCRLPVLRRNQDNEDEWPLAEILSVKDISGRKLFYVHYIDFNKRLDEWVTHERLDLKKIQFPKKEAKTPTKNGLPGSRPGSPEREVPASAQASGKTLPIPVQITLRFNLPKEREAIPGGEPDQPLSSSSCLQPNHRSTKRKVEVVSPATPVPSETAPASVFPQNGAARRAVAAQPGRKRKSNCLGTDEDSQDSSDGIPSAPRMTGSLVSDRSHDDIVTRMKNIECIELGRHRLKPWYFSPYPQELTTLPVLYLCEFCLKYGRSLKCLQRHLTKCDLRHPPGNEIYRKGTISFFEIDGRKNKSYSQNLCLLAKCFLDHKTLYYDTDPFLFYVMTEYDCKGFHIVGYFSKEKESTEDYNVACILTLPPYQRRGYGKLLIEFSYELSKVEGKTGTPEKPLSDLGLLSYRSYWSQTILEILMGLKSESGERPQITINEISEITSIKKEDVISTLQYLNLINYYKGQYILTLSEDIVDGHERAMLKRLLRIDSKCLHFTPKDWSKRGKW
row,Variant,effect of a mutation on the interaction
1,MSYGRPPPDVEGMTSLKVDNLTYRTSPDTLRRVFEKYGRVGDVYIPRDRYTRESRGFAFVRFHDKRDAEDAMDAMDGAVLDGRELRVQMARYGRPPDSHHSRRGPPPRRYGGGGYGRRSRSPRRRRRSRSRSRSRSRSRSRSRYSRSKSRSRTRSRSRSTSKSRSARRSKSKSSSVSRSRSRSRSRSRSRSPPPVSKRESKSRSRSKSPPKSPEEEGAVSS [K52R],disrupting interaction

# Reference: IntAct's records for PubMed 21157427
